Experimental data as given in patent US20220324955A1.

The substances below were run against human neonatal Fc-receptor (FcRn) (human) (UniProt P55899) (assay: FcRn affinity column chromatography).

| FcRn-affinity column retention time [min] | retention time [min] | Substance |
| --- | --- | --- |
| 41.3 |  | IgG1 Fc-region with L234A/L235A/P329G and symmetric Y436A |
|  | 46.2 | anti-HER2 antibody, symmetric mutation K290H |
|  | 45.5 | anti-HER2 antibody, symmetric mutation L309H |
|  | 41.4 | anti-HER2 antibody, symmetric mutation R255D |
|  | 46 | anti-HER2 antibody, symmetric mutation T256H |

Continued, substance first:

| Substance | FcRn-affinity column retention time [min] | retention time [min] |
| --- | --- | --- |
| anti-HER2 antibody, symmetric mutation E430H |  | 46.4 |
| anti-HER2 antibody, symmetric mutation K288E |  | 45.2 |
| anti-HER2 antibody, symmetric mutation K317H |  | 46.3 |
| anti-HER2 antibody, symmetric mutation N434H |  | 52 |
| anti-HER2 antibody, symmetric mutation Q311H |  | 46.3 |
